Laboratory results taken from patent US20260167699A1 (Chugai, published 2026).
Positions count from the first letter of the chain named.

T1: FcγRIIa(H) extracellular domain, C-terminal His tag (human, UniProt P12318 34-217)
T1 construct: extracellular domain; Allotype H131; also called 2aH
T1 sequence: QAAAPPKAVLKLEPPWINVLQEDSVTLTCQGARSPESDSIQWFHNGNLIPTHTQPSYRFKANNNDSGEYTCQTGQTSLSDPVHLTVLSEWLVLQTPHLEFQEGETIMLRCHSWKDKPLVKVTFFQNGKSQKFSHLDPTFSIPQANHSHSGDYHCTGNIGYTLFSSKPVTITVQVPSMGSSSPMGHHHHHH

T2: FcγRIIb extracellular domain, C-terminal His tag (human, UniProt P31994 43-217)
T2 construct: extracellular domain; also called 2b
T2 sequence: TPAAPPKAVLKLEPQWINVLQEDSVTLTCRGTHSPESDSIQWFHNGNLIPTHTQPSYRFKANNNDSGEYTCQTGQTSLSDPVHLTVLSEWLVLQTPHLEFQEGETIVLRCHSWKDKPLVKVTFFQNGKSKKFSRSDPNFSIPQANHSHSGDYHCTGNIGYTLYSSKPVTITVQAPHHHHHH

T3: FcγRIIa(R) extracellular domain, C-terminal His tag (human, UniProt P12318 34-217)
T3 construct: extracellular domain; Allotype R131; also called 2aR
T3 sequence: T1 sequence with H134R

B1: H240-Kn125/H240-Hl076/L73-k0 (antibody, human IgG1, kappa)
heavy 1: QDQLVQSGAEVKKPGASVKVSCKASGFNIKDTYIQWVRQAPGQGLEWMGRIDPLRKQTKYREKFEGRVTITADTSTNTAYMELSSLRSEDTAVYYCVRSGREFDYWGQGTLVTVSSASTKGPSVFPLAPSSKSTSGGTAALGCLVKDYFPEPVTVSWNSGALTSGVHTFPAVLQSSGLYSLSSVVTVPSSSLGTQTYICNVNHKPSNTKVDKKVEPKSCDKTHTCPPCPAPELLGGPSVFLFPPKPKDTLMISRTPEVTCVVVDVSHEEPEVKFNWYVDGVEVHNAKTKPREEQYNSTYRVVSVLTVLHQDWLNGKEYKCKVSNDALPMPIEETISKAKGQPREPQVYTLPPSRCELTKNQVSLSCAVKGFYPSDIAVEWESNGQPENNYKTTPPVLDSDGSFFLVSKLTVDKSRWQQGNVFSCSVMHEALHNHYTQKSLSLSP
heavy 2: QDQLVQSGAEVKKPGASVKVSCKASGFNIKDTYIQWVRQAPGQGLEWMGRIDPLRKQTKYREKFEGRVTITADTSTNTAYMELSSLRSEDTAVYYCVRSGREFDYWGQGTLVTVSSASTKGPSVFPLAPSSKSTSGGTAALGCLVKDYFPEPVTVSWNSGALTSGVHTFPAVLQSSGLYSLSSVVTVPSSSLGTQTYICNVNHKPSNTKVDKKVEPKSCDKTHTCPPCPAPEYQWGPMVFLFPPKPKDTLMISRTPEVTCVVVDVSDEEPEVKFNWYVDGVEVHNAKTKPREEQYNATYRVVSVLTVLHQDWLNGKEYKCKVSNKALPAPIEKTISKAKGQPREPQVCTLPPSRDELTKNQVSLWCLVKGFYPSDIAVEWESNGQPENNYKTTPPVLDSDGSFFLYSKLTVDKSRWQQGNVFSCSVMHEALHNHYTQKSLSLSP
light: DIQMTQSPSSLSASVGDRVTITCRASQDIHKYIAWYQQKPGQAPRLLIQYTSTLQPGVPSRFSGSGSGTDYTFTISSLQPEDIATYYCLQYEQLRTFGGGTKVEIKRTVAAPSVFIFPPSDEQLKSGTASVVCLLNNFYPREAKVQWKVDNALQSGNSQESVTEQDSKDSTYSLSSTLTLSKADYEKHKVYACEVTHQGLSSPVTKSFNRGEC
notes: heterodimerized anti-EREG antibody, parent of the loop-extended forms; also called HI076/Kn125; parent peptide
B2: HI076-L2-GS6 (antibody, human IgG1, kappa)
heavy 1: B1 heavy 1 with S266G, H267G, E268S, E269G, P270G, E271S
heavy 2: B1 heavy 2
light: B1 light
notes: heterodimerized anti-EREG antibody: altered H240-Hl076 chain (Gly/Ser peptide in loop) with H240-Kn125 and L73-k0; also called Hl076-L2-GS6_2
B3: Kn125-L4-GS5 (antibody, human IgG1, kappa)
heavy 1: B1 heavy 1
heavy 2: B1 heavy 2 with K325G, A326S, L327G, P328G, A329S
light: B1 light
notes: heterodimerized anti-EREG antibody: altered H240-Kn125 chain (Gly/Ser peptide in loop) with H240-Hl076 and L73-k0
B4: HI076-L2-GS12 (antibody, human IgG1, kappa)
heavy 1: QDQLVQSGAEVKKPGASVKVSCKASGFNIKDTYIQWVRQAPGQGLEWMGRIDPLRKQTKYREKFEGRVTITADTSTNTAYMELSSLRSEDTAVYYCVRSGREFDYWGQGTLVTVSSASTKGPSVFPLAPSSKSTSGGTAALGCLVKDYFPEPVTVSWNSGALTSGVHTFPAVLQSSGLYSLSSVVTVPSSSLGTQTYICNVNHKPSNTKVDKKVEPKSCDKTHTCPPCPAPELLGGPSVFLFPPKPKDTLMISRTPEVTCVVVDVGGGSGGGSGGGSVKFNWYVDGVEVHNAKTKPREEQYNSTYRVVSVLTVLHQDWLNGKEYKCKVSNDALPMPIEETISKAKGQPREPQVYTLPPSRCELTKNQVSLSCAVKGFYPSDIAVEWESNGQPENNYKTTPPVLDSDGSFFLVSKLTVDKSRWQQGNVFSCSVMHEALHNHYTQKSLSLSP
heavy 2: B1 heavy 2
light: B1 light
notes: heterodimerized anti-EREG antibody: altered H240-Hl076 chain (Gly/Ser peptide in loop) with H240-Kn125 and L73-k0; also called Hl076-L2-GS12_2
B5: HI076-L2-6 (antibody, human IgG1, kappa)
heavy 1: B4 heavy 1 with G266S, G267H, S269G, G270S, G274E, G275E, G276P, S277E
heavy 2: B1 heavy 2
light: B1 light
notes: heterodimerized anti-EREG antibody: altered H240-Hl076 chain (Gly/Ser peptide in loop) with H240-Kn125 and L73-k0; also called Hl076-L2-6
B6: HI076-L2-3 (antibody, human IgG1, kappa)
heavy 1: QDQLVQSGAEVKKPGASVKVSCKASGFNIKDTYIQWVRQAPGQGLEWMGRIDPLRKQTKYREKFEGRVTITADTSTNTAYMELSSLRSEDTAVYYCVRSGREFDYWGQGTLVTVSSASTKGPSVFPLAPSSKSTSGGTAALGCLVKDYFPEPVTVSWNSGALTSGVHTFPAVLQSSGLYSLSSVVTVPSSSLGTQTYICNVNHKPSNTKVDKKVEPKSCDKTHTCPPCPAPELLGGPSVFLFPPKPKDTLMISRTPEVTCVVVDVSHGGSEEPEVKFNWYVDGVEVHNAKTKPREEQYNSTYRVVSVLTVLHQDWLNGKEYKCKVSNDALPMPIEETISKAKGQPREPQVYTLPPSRCELTKNQVSLSCAVKGFYPSDIAVEWESNGQPENNYKTTPPVLDSDGSFFLVSKLTVDKSRWQQGNVFSCSVMHEALHNHYTQKSLSLSP
heavy 2: B1 heavy 2
light: B1 light
notes: heterodimerized anti-EREG antibody: altered H240-Hl076 chain (Gly/Ser peptide in loop) with H240-Kn125 and L73-k0; also called Hl076-L2-3
B7: HI076-L2-9 (antibody, human IgG1, kappa)
heavy 1: QDQLVQSGAEVKKPGASVKVSCKASGFNIKDTYIQWVRQAPGQGLEWMGRIDPLRKQTKYREKFEGRVTITADTSTNTAYMELSSLRSEDTAVYYCVRSGREFDYWGQGTLVTVSSASTKGPSVFPLAPSSKSTSGGTAALGCLVKDYFPEPVTVSWNSGALTSGVHTFPAVLQSSGLYSLSSVVTVPSSSLGTQTYICNVNHKPSNTKVDKKVEPKSCDKTHTCPPCPAPELLGGPSVFLFPPKPKDTLMISRTPEVTCVVVDVSHGGSGGSGGSEEPEVKFNWYVDGVEVHNAKTKPREEQYNSTYRVVSVLTVLHQDWLNGKEYKCKVSNDALPMPIEETISKAKGQPREPQVYTLPPSRCELTKNQVSLSCAVKGFYPSDIAVEWESNGQPENNYKTTPPVLDSDGSFFLVSKLTVDKSRWQQGNVFSCSVMHEALHNHYTQKSLSLSP
heavy 2: B1 heavy 2
light: B1 light
notes: heterodimerized anti-EREG antibody: altered H240-Hl076 chain (Gly/Ser peptide in loop) with H240-Kn125 and L73-k0; also called Hl076-L2-9
B8: HI076-L3-3 (antibody, human IgG1, kappa)
heavy 1: QDQLVQSGAEVKKPGASVKVSCKASGFNIKDTYIQWVRQAPGQGLEWMGRIDPLRKQTKYREKFEGRVTITADTSTNTAYMELSSLRSEDTAVYYCVRSGREFDYWGQGTLVTVSSASTKGPSVFPLAPSSKSTSGGTAALGCLVKDYFPEPVTVSWNSGALTSGVHTFPAVLQSSGLYSLSSVVTVPSSSLGTQTYICNVNHKPSNTKVDKKVEPKSCDKTHTCPPCPAPELLGGPSVFLFPPKPKDTLMISRTPEVTCVVVDVSHEEPEVKFNWYVDGVEVHNAKTKPREEQYNSTGGSYRVVSVLTVLHQDWLNGKEYKCKVSNDALPMPIEETISKAKGQPREPQVYTLPPSRCELTKNQVSLSCAVKGFYPSDIAVEWESNGQPENNYKTTPPVLDSDGSFFLVSKLTVDKSRWQQGNVFSCSVMHEALHNHYTQKSLSLSP
heavy 2: B1 heavy 2
light: B1 light
notes: heterodimerized anti-EREG antibody: altered H240-Hl076 chain (Gly/Ser peptide in loop) with H240-Kn125 and L73-k0; also called Hl076-L3-3
B9: HI076-L3-6 (antibody, human IgG1, kappa)
heavy 1: QDQLVQSGAEVKKPGASVKVSCKASGFNIKDTYIQWVRQAPGQGLEWMGRIDPLRKQTKYREKFEGRVTITADTSTNTAYMELSSLRSEDTAVYYCVRSGREFDYWGQGTLVTVSSASTKGPSVFPLAPSSKSTSGGTAALGCLVKDYFPEPVTVSWNSGALTSGVHTFPAVLQSSGLYSLSSVVTVPSSSLGTQTYICNVNHKPSNTKVDKKVEPKSCDKTHTCPPCPAPELLGGPSVFLFPPKPKDTLMISRTPEVTCVVVDVSHEEPEVKFNWYVDGVEVHNAKTKPREEQYNSTGGSGGSYRVVSVLTVLHQDWLNGKEYKCKVSNDALPMPIEETISKAKGQPREPQVYTLPPSRCELTKNQVSLSCAVKGFYPSDIAVEWESNGQPENNYKTTPPVLDSDGSFFLVSKLTVDKSRWQQGNVFSCSVMHEALHNHYTQKSLSLSP
heavy 2: B1 heavy 2
light: B1 light
notes: heterodimerized anti-EREG antibody: altered H240-Hl076 chain (Gly/Ser peptide in loop) with H240-Kn125 and L73-k0; also called Hl076-L3-6
B10: GpH7-A5/GpH7-B3 variant S324_06M/GpL16-k0 (antibody, human IgG1, kappa)
heavy 1: not shown
heavy 2: not shown
light: DIVMTQSPLSLPVTPGEPASISCQASESLVHSNRNTYLHWYLQKPGQSPQLLIYKVSNRFSGVPDRFSGSGSGTDFTLKISRVEAEDVGVYYCSQNTHVPPTFGQGTKVEIERTVAAPSVFIFPPSDEQLKSGTASVVCLLNNFYPREAKVQWKVDNALQSGNSQESVTEQDSKDSTYSLSSTLTLSKADYEKHKVYACEVTHQGLSSPVTKSFNRGEC
notes: He Ab: anti-glypican 3 IgG1 heterodimer, only the GpH7-B3 chain mutated; position in EU numbering; also called He Ab
B11: GpH7-A5/GpH7-B3 variant S324_16H/GpL16-k0 (antibody, human IgG1, kappa)
heavy 1: not shown
heavy 2: not shown
light: B10 light
notes: as for B10

molecular target: T4, FcγRIIIaV (human, UniProt P08637 17-208); assay: SPR (Biacore), antibody captured, FcγR as analyte, 1:1 Langmuir fit
T4 construct: extracellular domain
T4 sequence (P08637 other isoform, or with tags, fused parts or gaps): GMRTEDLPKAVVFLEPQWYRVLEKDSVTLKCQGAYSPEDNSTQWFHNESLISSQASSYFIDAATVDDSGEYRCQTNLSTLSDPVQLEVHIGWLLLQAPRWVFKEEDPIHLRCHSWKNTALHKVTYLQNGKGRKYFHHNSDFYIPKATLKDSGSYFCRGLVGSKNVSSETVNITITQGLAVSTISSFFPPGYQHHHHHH
Method: (§1) The antibody of interest was analyzed for its interaction with FcγR using a BiaCore™ T100, BiaCore™ A100, or BiaCore™ 4000 surface plasmon resonance system (GE Healthcare Japan Corp.). The running buffer used was HBS-EP+ (GE Healthcare Japan Corp.). The assay temperature was set to 25° C. The sensor chips used were: a chip prepared by immobilizing antigenic peptides onto Series S Sensor Chip CM5 (GE Healthcare Japan Corp.) by the amine coupling method; a chip prepared by immobilizing antigenic peptides biotinylated in advance onto Series S Sensor Chip SA (certified) (GE Healthcare Japan Corp.) through their interaction; a chip prepared by immobilizing protein L (ACTIGEN, BioVision, Inc.) onto Series S Sensor Chip CM5 (GE Healthcare Japan Corp.); and a chip prepared by immobilizing protein A/G (Thermo Fisher Scientific K.K.) onto Series S Sensor Chip CM5 (GE Healthcare Japan Corp.). The antibody of interest was captured onto any of these chips and allowed to interact with FcγR diluted with a running buffer. The antibody captured on the chip was washed off through the reaction of 10 mM glycine-HCl (pH 1.5) to regenerate the chip, which was repetitively used.

Row | Binder | Kd
1 | B1 | 0.47 nM
2 | B2 | 2.8 nM
3 | B3 | 1.8 nM
4 | B4 | 2.8 nM
5 | B5 | 1.9 nM
6 | B6 | 2.3 nM
7 | B7 | 2.4 nM
8 | B8 | 2.9 nM
9 | B9 | 7.2 nM

molecular target: T1, FcγRIIa(H) extracellular domain, …; assay: SPR (Biacore); binding relative to GpH7-A5/GpH7-B3/GpL16-k0 x100;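 further: antibodies captured on a chip surface, soluble FcγR flowed over in HBS-EP+ running buffer at 25 °C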
Method: as §1

Row | Binder | He/Con 2aH
10 | B10 | 122%
11 | B11 | 113%

molecular target: T2, FcγRIIb extracellular domain, …; assay: as above
Method: as §1

Row | Binder | He/Con 2b
12 | B10 | 126%
13 | B11 | 109%

molecular target: T5, FcγRIa extracellular domain, C-terminal His tag (human, UniProt P12314 16-292); assay: as above
T5 construct: extracellular domain; also called 1a
T5 sequence (P12314 other isoform, or with tags, fused parts or gaps): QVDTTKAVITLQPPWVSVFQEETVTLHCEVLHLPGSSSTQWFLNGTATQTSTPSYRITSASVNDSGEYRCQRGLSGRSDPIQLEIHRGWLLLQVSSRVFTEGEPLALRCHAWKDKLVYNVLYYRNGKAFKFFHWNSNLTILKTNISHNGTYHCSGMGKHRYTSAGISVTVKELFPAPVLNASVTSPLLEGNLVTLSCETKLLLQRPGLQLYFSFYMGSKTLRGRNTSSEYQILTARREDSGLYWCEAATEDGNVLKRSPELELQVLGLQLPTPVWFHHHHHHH
Method: as §1

Row | Binder | He/Con 1a
14 | B10 | 104%
15 | B11 | 106%

molecular target: T6, FcγRIIIa extracellular domain, C-terminal His tag (human, UniProt P08637 17-208); assay: as above
T6 construct: extracellular domain; also called 3a
T6 sequence (P08637 other isoform, or with tags, fused parts or gaps): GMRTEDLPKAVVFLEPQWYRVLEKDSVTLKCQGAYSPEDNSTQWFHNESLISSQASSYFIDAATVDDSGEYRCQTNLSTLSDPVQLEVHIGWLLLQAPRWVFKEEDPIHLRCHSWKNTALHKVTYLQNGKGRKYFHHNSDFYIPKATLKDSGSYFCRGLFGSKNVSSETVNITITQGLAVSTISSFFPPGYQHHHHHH
Method: as §1

Row | Binder | He/Con 3a
16 | B10 | 124%
17 | B11 | 113%

molecular target: T3, FcγRIIa(R) extracellular domain, …; assay: as above
Method: as §1

Row | Binder | He/Con 2aR
18 | B10 | 118%
19 | B11 | 105%
